Holding throughout (test): flow cytometry, 293 cells expressing human IgE CH2-4
(A flow cytometer gives signals particle by particle.)

The target in assay [1] is T1, CH2-4 constant domains of human IgE linked to a transmembrane protein, on 293 cells (human, UniProt P01854-1 104-428).
T1 construct: domain: CH2-4 constant domains; also called human IgE-expressing 293 cells
The procedure:
(§1) First, 25 μg of DNA was added to Opti-MEM Reduced Serum Medium (Gibco) mixed with 75 μL of 40 kDa Polyethylenimine (PEI) for a final concentration of 1 μg DNA and 2.5 μg PEI per mL of culture volume. The plasmid DNA was allowed to pre-complex with PEI for 15 minutes before transferring the mixture to 25 mL of 293 cells in a shake flask at a density of 2×10⁶ cells/mL. […] Next, 50 μL of cells were transferred to wells of a round-bottom 96-well assay plate for a total of 50,000 293 cells per well. In a separate 96-well plate, monomeric VHH-hIgG1-Fc fusion proteins were titrated 1:5 in a 8-point dilution series starting at 1 μM in FACS Buffer with the 8th point containing no antibody. 50 μL from each antibody dilution was added to wells containing 50 μL of FACS Buffer with transfected 293 cells which produced a 2-fold dilution of the antibody concentrations from the dilution series resulting in a 500 nM final, starting concentration of the test article titration. The test articles and 293 cells were incubated together at 4° C. for 30 minutes. Next, the 96-well plates were centrifuged at 400×g for 5 minutes and the FACS buffer containing unbound antibody was decanted. Cells were washed 1× with 150 μL 4° C. FACS Buffer. […] The cells were incubated with the fluorophore conjugated detection antibody at 4° C. for 20 minutes. 293 cells were then centrifuged and washed once as described above. Cell pellets were resuspended in 30 μL FACS Buffer and analyzed on an iQue Screener Plus flow cytometer (Sartorius, IntelliCyt) with a 1 second sip time and 1 second void time. Mean fluorescent intensity was calculated using iQue onboard software gating on GFP+ or citrine+ cells.

For assay [2], the target named is T1, CH2-4 constant domains of human IgE …. On the procedure:
as §1
This is another data set of the same source.

The target is the same in assay [3]. The procedure: as §1
The source holds these as a separate data set.

Assay [4] shares this target. The procedure: as §1
The source holds these as a separate data set.

Substitutions are numbered along the chain they refer to. Where two headings read alike, the source gives them in different places.

The values that follow come from patent US20250163186A1 (PHYLAXIS BIOSCIENCE, published 2025).

T1 sequence (P01854 other isoform, or with tags, fused parts or gaps): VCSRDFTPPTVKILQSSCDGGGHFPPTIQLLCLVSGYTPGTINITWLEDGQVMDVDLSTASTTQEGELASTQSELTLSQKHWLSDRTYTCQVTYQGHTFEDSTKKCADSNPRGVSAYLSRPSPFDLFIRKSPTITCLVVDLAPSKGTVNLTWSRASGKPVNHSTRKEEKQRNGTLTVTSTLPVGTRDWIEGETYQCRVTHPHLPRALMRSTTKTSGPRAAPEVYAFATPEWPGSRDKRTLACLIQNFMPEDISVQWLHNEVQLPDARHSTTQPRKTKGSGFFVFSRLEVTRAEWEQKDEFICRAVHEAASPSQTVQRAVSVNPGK

B1: hzB10v6-NNT (Fc fusion)
VHH-Fc: EVQLVQSGGELVQAGGSLRLSCVASGLTFSSYNMGWLRQAPGKEREFVGMSGSSSTSTYYADSVKGRFTISRDNSKNTVYLQMNSLKPEDTAVYYCAARRMLSTYWSDRSWDFWGQGTQVTVRPGGPSVFLFPPKPKDTLMISRTPEVTCVVVDVSHEDPEVKFNWYVDGVEVHNAKTKPREEQYNSTYRVVSVLTVLHQDWLNGKEYKCKVSNKALPAPIEKTISKAKGQPREPQVYTLPPSRDELTKNQVNLTCLVKGFYPSDIAVEWESNGQPENNYKTTPPVLDSDGSFFLNSTLTVDKSRWQQGNVFSCSVMHEALHNHYTQKSLSLSPGK
notes: monomeric
By Kd is commonly meant a measure of binding affinity in units of concentration. A low value points to a tighter complex. On to B1, for which binding in assay [1] was characterised by a dissociation constant (Kd) of 1.95 nM.

B2: hzB10v15-NNT (Fc fusion)
VHH-Fc: B1 VHH-Fc with V5L, Q6E, E10G, L11E, A14P, L37V, G49S, M50L, M101L, R123E
notes: monomeric
Take B2: in assay [1], the Bmax was 1.89e+06 MFI and the Kd stood at 10 nM.

B3: hzB10v7-NNT (Fc fusion)
VHH-Fc: B1 VHH-Fc with M50L, R123K
notes: monomeric
In assay [1], B3 displayed a Bmax of 3.34e+06 MFI and a Kd of 3.71 nM.

B4: hzB10v20-NNT (Fc fusion)
VHH-Fc: B1 VHH-Fc with V5L, Q6E, E10G, L11E, A14P, M50L, V79L, M101L, R123E
notes: monomeric
Consider B4, for which, in assay [1], the Bmax stood at 2.24e+06 MFI and the Kd was 6.01 nM.

B5: hzB10v3-NNT (Fc fusion)
VHH-Fc: B1 VHH-Fc with L37V, R123K
notes: monomeric
Take B5: in assay [1], the Bmax is 1.69e+06 MFI and the Kd came out at 342 nM.

B6: hzB10v17-NNT (Fc fusion)
VHH-Fc: B1 VHH-Fc with V5L, Q6E, E10G, L11E, A14P, M50L, S63A, M101L, R123E
notes: monomeric
In assay [1], B6 gave a Bmax of 2.07e+06 MFI and a Kd of 1.7 nM.

B7: hzB10v13-NNT (Fc fusion)
VHH-Fc: B1 VHH-Fc with D62E, S75A, V122A, R123K
notes: monomeric
In assay [2], B7 gave a Bmax of 2.82e+06 MFI and a Kd of 3.49 nM.

B8: hzB10v11-NNT (Fc fusion)
VHH-Fc: B1 VHH-Fc with M101I, R123K
notes: monomeric
B8: in assay [2], the Bmax stood at 3.41e+06 MFI and the affinity, expressed as Kd, was 15.6 nM.

B9: hzB10v10-NNT (Fc fusion)
VHH-Fc: B1 VHH-Fc with M101L, V122A, R123K
notes: monomeric
In assay [2], B9 showed a Bmax of 2.76e+06 MFI and a Kd of 1.19 nM.

B10: hzB10v14-NNT (Fc fusion)
VHH-Fc: B1 VHH-Fc with V5L, Q6E, E10G, L11E, A14P, M50L, M101L, R123E
notes: monomeric
B10: in assay [1], the Bmax worked out at 1.95e+06 MFI and binding was put at a Kd of 2.11 nM.

B11: hzB10v8-NNT (Fc fusion)
VHH-Fc: B1 VHH-Fc with M50I, R123K
notes: monomeric
In assay [2], B11 registered a Bmax of 2.75e+06 MFI and a Kd of 2.74 nM.

B12: hzB10v9-NNT (Fc fusion)
VHH-Fc: B1 VHH-Fc with M50V, R123K
notes: monomeric
In assay [2], B12 had a Bmax of 2.83e+06 MFI and a Kd of 2.82 nM.

B13: hzB10v1-NNT (Fc fusion)
VHH-Fc: B1 VHH-Fc with V5L, Q6E, E10G, A14P, R123K
notes: monomeric
B13: binding in assay [1] was characterised by a dissociation constant (Kd) of 1.37 nM.

B14: hzB10v16-NNT (Fc fusion)
VHH-Fc: B1 VHH-Fc with V5L, Q6E, E10G, L11E, A14P, M50L, D62E, M101L, R123E
notes: monomeric
In assay [1], B14 gave a Bmax of 2.23e+06 MFI and a Kd of 1.89 nM.

B15: hzB10v18-NNT (Fc fusion)
VHH-Fc: B1 VHH-Fc with V5L, Q6E, E10G, L11E, A14P, M50L, S63T, M101L, R123E
notes: monomeric
Take B15: in assay [1], the Bmax came to 1.95e+06 MFI and the Kd was determined as 5.07 nM.

B16: hzB10v22-NNT (Fc fusion)
VHH-Fc: B1 VHH-Fc with V5L, Q6E, E10G, L11E, A14P, M50L, K87R, M101L, R123E
notes: monomeric
Take B16: in assay [3], the Bmax is 2.08e+06 MFI and the Kd was 2.39 nM.

B17: hzB10v21-NNT (Fc fusion)
VHH-Fc: B1 VHH-Fc with V5L, Q6E, E10G, L11E, A14P, M50L, N84S, M101L, R123E
notes: monomeric
In assay [3], B17 displayed a Bmax of 1.72e+06 MFI and a Kd of 6.4 nM.

B18: hzB10v2-NNT (Fc fusion)
VHH-Fc: B1 VHH-Fc with L37V, G49S, R123K
notes: monomeric
Consider B18, for which, in assay [1], the Bmax worked out at 2.46e+06 MFI and binding was characterised by a dissociation constant (Kd) of 1.81 nM.

B19: hzB10v12-NNT (Fc fusion)
VHH-Fc: B1 VHH-Fc with M101V, R123K
notes: monomeric
As to B19, in assay [2], the Bmax came to 2.72e+06 MFI and the Kd amounted to 2.37 nM.

B20: hzB10v27-NNT (Fc fusion)
VHH-Fc: EVQLLESGGGEVQPGGSLRLSCVASGLTFSSYNMGWLRQAPGKEREFVGLSGSSSTSTYYAESVKGRFTISRDNSKNTVYLQMNSLRAEDTAVYYCAARRLLSTYWSDRSWDFWGQGTQVTVEPGGPSVFLFPPKPKDTLMISRTPEVTCVVVDVSHEDPEVKFNWYVDGVEVHNAKTKPREEQYNSTYRVVSVLTVLHQDWLNGKEYKCKVSNKALPAPIEKTISKAKGQPREPQVYTLPPSRDELTKNQVNLTCLVKGFYPSDIAVEWESNGQPENNYKTTPPVLDSDGSFFLNSTLTVDKSRWQQGNVFSCSVMHEALHNHYTQKSLSLSPGK
notes: monomeric
In assay [4], B20 had a Bmax of 753000 MFI and a Kd of 1.16 nM.

B21: hzB10v29-NNT (Fc fusion)
VHH-Fc: B20 VHH-Fc with N84Q
notes: monomeric
In assay [4], B21 registered a Bmax of 605000 MFI and a Kd of 2.31 nM.

B22: hzB10v34-NNT (Fc fusion)
VHH-Fc: B20 VHH-Fc with L37V, G49S
notes: monomeric
In assay [4], B22 had a Bmax of 375000 MFI and a Kd of 0.55 nM.

B23: hzB10v32-NNT (Fc fusion)
VHH-Fc: B20 VHH-Fc with L37V
notes: monomeric
As to B23, in assay [4], the Bmax worked out at 706000 MFI and the Kd was 1.33 nM.

B24: hzB10v31-NNT (Fc fusion)
VHH-Fc: B20 VHH-Fc with S85T
notes: monomeric
Consider B24, for which, in assay [4], the Bmax stood at 575000 MFI and the Kd was determined as 0.978 nM.

B25: hzB10v28-NNT (Fc fusion)
VHH-Fc: B20 VHH-Fc with N84S
notes: monomeric
As to B25, in assay [4], the Bmax was determined as 1.12e+08 MFI and the Kd stood at 7070 nM.

B26: hzB10v33-NNT (Fc fusion)
VHH-Fc: B20 VHH-Fc with G49S
notes: monomeric
In the case of B26, in assay [4], the Bmax was 617000 MFI and the Kd is 1.94 nM.

B27: Anti-IgE sdAb B10 (parental B10 VHH, dimeric VHH-hIgG1-Fc xELL fusion) (Fc fusion)
chain: EVQLVQSGGELVQAGGSLRLSCVASGLTFSSYNMGWLRQAPGKEREFVGMSGSSSTSTYYADSVKGRFTISRDNSKNTVYLQMNSLKPEDTAVYYCAARRMLSTYWSDRSWDFWGQGTQVTVKPDKTHTCPPCPAPGGPSVFLFPPKPKDTLMISRTPEVTCVVVDVSHEDPEVKFNWYVDGVEVHNAKTKPREEQYNSTYRVVSVLTVLHQDWLNGKEYKCKVSNKALPAPIEKTISKAKGQPREPQVYTLPPSRDELTKNQVSLTCLVKGFYPSDIAVEWESNGQPENNYKTTPPVLDSDGSFFLYSKLTVDKSRWQQGNVFSCSVMHEALHNHYTQKSLSLSPGK
Regarding B27, the Kd in assay [1] and in assay [2] was 0.893 nM in each case. The molecule also displayed a Bmax in assay [2] of 2.25e+06 MFI.
